According to patent US20230212587A1, “Mutant Hydroxyphenylpyruvate Dioxygenase Polypeptide, Encoding Gene Thereof and Use Therefor” (Beijing Dabeinong Biotechnology Co., Ltd., priority 2019, published 2023):

Tested on: Arabidopsis thaliana T1 plants
Assay: Topramezone tolerance of transgenic Arabidopsis thaliana T1 plants (pesticide damage grade by bleached leaf area, score, resistance evaluation)
Format: in vivo
Design: score: scale not given here
Settings: for Resistance Grade / score / Grade 0 / Grade 1 / Grade 2 / Grade 3: HPPD from Avena sativa source; for Grade 0 / Grade 1 / Grade 2 / Grade 3: number of plants; for Resistance evaluation: HPPD F372G mutants, Table 6
Outline: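 Herbicide tolerance was judged per plant on a bleaching scale (grade 0 no bleaching to grade 3 fully bleached) 7 DAT. Topramezone doses were 0, 25, 50 and 100 g ai/ha on 18-day-old T1 and wild-type plants.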

B1: F372 deletion (protein, listed as Avena sativa)
chain: MPPTPATATGAAAAAVTPEHAARSFPRVVRVNPRSDRFPVLSFHHVELWCADAASAAGRFSFALGAPLAARSDLSTGNSAHASLLLRSGALAFLFTAPYAPPPQEAATAAATASIPSFSADAARTFAAAHGLAVRSVGVRVADAAEAFRVSVAGGARPAFAPADLGHGFGLAEVELYGDVVLRFVSYPDETDLPFLPGFERVSSPGAVDYGLTRFDHVVGNVPEMAPVIDYMKGFLGFHEFAEFTAEDVGTTESGLNSVVLANNSEAVLLPLNEPVHGTKRRSQIQTYLEYHGGPGVQHIALASNDVLRTLREMRARTPMGGFEFMAPPQAKYYEGVRRIAGDVLSEEQIKECQELGVLVDRDDQGVLLQITKPVGDRPTFFLEMIQRIGCMEKDEVGQEYQKGGCGGFGKGNFSELFKSIEDYEKSLEVKQSVVAQKS
modifications: AsHPPD Amido Acid Sequence
- Resistance Grade (topramezone 25 g ai/ha (1x)): Highly resistant
- score (topramezone 25 g ai/ha (1x)): 0
- Grade 0 (topramezone 25 g ai/ha (1x)): 20
- Grade 1 (topramezone 25 g ai/ha (1x)): 0
- Grade 2 (topramezone 25 g ai/ha (1x)): 0
- Grade 3 (topramezone 25 g ai/ha (1x)): 0
- Resistance Grade (topramezone 50 g ai/ha (2x)): Highly resistant
- score (topramezone 50 g ai/ha (2x)): 0
- Grade 0 (topramezone 50 g ai/ha (2x)): 20
- Grade 1 (topramezone 50 g ai/ha (2x)): 0
- Grade 2 (topramezone 50 g ai/ha (2x)): 0
- Grade 3 (topramezone 50 g ai/ha (2x)): 0
- Resistance Grade (topramezone 100 g ai/ha (4x)): Highly resistant
- score (topramezone 100 g ai/ha (4x)): 3
- Grade 0 (topramezone 100 g ai/ha (4x)): 18
- Grade 1 (topramezone 100 g ai/ha (4x)): 2
- Grade 2 (topramezone 100 g ai/ha (4x)): 0
- Grade 3 (topramezone 100 g ai/ha (4x)): 0

B2: SiHPPDm-F372G: Setaria italica HPPD mutant F372G, SEQ ID NO: 307 (protein)
chain: MPPTPTPAAAAPGAAAAPAAGDQAAFRLVGHRGFVRVNPRSDRFHTLSFHHVELWCADATSAAGRFSFGLGAPLAARSDLSTGNSAHASLLLRSGSLAFLFTAPYAHGVDAATASLPSFSAPAARSFAADHGLAVRAIGLRVADAEDAFRASVAAGARPAFKPVELGLGFRLAEVELYGDVVLRYVSYPDAEDAPFLPGFENVNNPGALNYGLRRFDHIVGNVPELAPVAAYVAGFTGFHEFAEFTAEDVGTAESGLNSMVLANNSETVLIPLNEPVHGTKRRSQIQTFLDHNGGPGVQHIALASDDVLRTLREMQARSAMGGFEFMAAPPPDYYEGVRRRAGDVLSEAQIKECQELGVLVDRDDQGVLLQIGTKPVGDRQTLFLEIIQRIGCMEKDEQGQEYQKGGCGGFGKGNFSQLFKSIEDYEKSLESKQAAAVQGS
modifications: SiHPPDm-F372G Amino Acid Sequence
- Resistance evaluation (topramezone 25 g ai/ha (1x)): Moderately resistant
- Resistance evaluation (topramezone 100 g ai/ha (4x)): Poorly resistant

B3: BdHPPDm-F372G: Brachypodium distachyon HPPD mutant F372G, SEQ ID NO: 303 (protein)
chain: MPPPATTAAPAAAAVTPEHARPPRRVARVNPRSDRFSALSFHHVELWCADAASAAGRFSFALGAPPAARSDLSTGNSAHASILLRSGSLAFLFTAPYAPSPASDSAASIPSFSASAARQFTADHGGLAVRAVALRVSSASDAFHASVSAGARPSFPPADLGQGFALAEVELYGDVVLRFISHPDENTEIPFLPGFESVSNPGASTYGLTRFDHVVGNVPSLAPVAAYIAGFTGFHEFAEFTAEDVGTADSGLNSVVLANNSERVLLPLNEPVHGTKRRSQIQTYLDHHGGPGVQHIALASDDVLRTLREMRARSAMGGFEFLAPPPPNYYDGVRRRAGDVLSEAQIKECQELGVLVDRDDQGVLLQIGTKPVGDRPTLFLEMIQRIGCMEKDEIGQEQQKGGCGGFGKGNFSELFRSIEEYEKSLEAKQSAVVQES
modifications: BdHPPDm-F372G Amino Acid Sequence
- Resistance evaluation (topramezone 25 g ai/ha (1x)): Highly resistant
- Resistance evaluation (topramezone 100 g ai/ha (4x)): Moderately resistant

B4: OsHPPDm-F372G: Oryza sativa HPPD mutant F372G, SEQ ID NO: 311 (protein)
chain: MPPTPTPTATTGAVSAAAAAGENAGFRLVGHRRFVRANPRSDRFQALAFHHVELWCADAASAAGRFAFALGAPLAARSDLSTGNSAHASLLLRSASVAFLFTAPYGGDHGVGADAATTASIPSFSPGAARRFAADHGLAVHAVALRVADAADAFRASVAAGARPAFQPADLGGGFGLAEVELYGDVVLRFVSHPDGADAPFLPGFEGVSNPGAVDYGLRRFDHVVGNVPELAPVAAYISGFTGFHEFAEFTAEDVGTAESGLNSVVLANNAETVLLPLNEPVHGTKRRSQIQTYLDHHGGPGVQHIALASDDVLGTLREMRARSAMGGFEFLAPPPPNYYDGVRRRAGDVLSEEQINECQELGVLVDRDDQGVLLQIGTKPVGDRPTFFLEMIQRIGCMEKDESGQEYQKGGCGGFGKGNFSELFKSIEEYEKSLEAKQAPTVQGS
modifications: OsHPPDm-F372G Amino Acid Sequence
- Resistance evaluation (topramezone 25 g ai/ha (1x)): Moderately resistant
- Resistance evaluation (topramezone 100 g ai/ha (4x)): Non-resistant

B5: HvHPPDm-F372G: Hordeum vulgare HPPD mutant F372G, SEQ ID NO: 305 (protein)
chain: MPPTPTTPAATGAAAAVTPEHARPHRMVRFNPRSDRFHTLSFHHVEFWCADAASAAGRFAFALGAPLAARSDLSTGNSAHASQLLRSGSLAFLFTAPYANGCDAATASLPSFSADAARRFSADHGIAVRSVALRVADAAEAFRASRRRGARPAFAPVDLGRGFAFAEVELYGDVVLRFVSHPDGTDVPFLPGFEGVTNPDAVDYGLTRFDHVVGNVPELAPAAAYIAGFTGFHEFAEFTAEDVGTTESGLNSVVLANNSEGVLLPLNEPVHGTKRRSQIQTFLEHHGGPGVQHIAVASSDVLRTLRKMRARSAMGGFDFLPPPLPKYYEGVRRLAGDVLSEAQIKECQELGVLVDRDDQGVLLQIGTKPVGDRPTLFLEMIQRIGCMEKDERGEEYQKGGCGGFGKGNFSELFKSIEDYEKSLEAKQSAAVQGS
modifications: HvHPPDm-F372G Amino Acid Sequence
- Resistance evaluation (topramezone 25 g ai/ha (1x)): Highly resistant
- Resistance evaluation (topramezone 100 g ai/ha (4x)): Poorly resistant

B6: SbHPPDm-F372G: Sorghum bicolor HPPD mutant F372G, SEQ ID NO: 309 (protein)
chain: MPPTPTTAAATGAAVAAASAEQAAFRLVGHRNFVRVNPRSDRFHTLAFHHVELWCADAASAAGRFSFGLGAPLAARSDLSTGNTAHASLLLRSGALAFLFTAPYAHGADAATASLPSFSAAEARRFAADHGLAVRAVALRVADAEDAFRASVAAGARPAFEPVELGLGFRLAEVELYGDVVLRYVSYPDDADASFLPGFVGVTSPGAADYGLRRFDHIVGNVPELAPAAAYFAGFTGFHEFAEFTAEDVGTTESGLNSMVLANNAENVLLPLNEPVHGTKRRSQIQTYLDHHGGPGVQHMALASDDVLRTLREMQARSAMGGFEFMAPPAPEYYDGVRRRAGDVLTEAQIKECQELGVLVDRDDQGVLLQIGTKPVGDRPTLFLEIIQRIGCMEKDEKGQEYQKGGCGGFGKGNFSQLFKSIEDYEKSLEAKQAAAAQGS
modifications: SbHPPDm-F372G Amino Acid Sequence
- Resistance evaluation (topramezone 25 g ai/ha (1x)): Moderately resistant
- Resistance evaluation (topramezone 100 g ai/ha (4x)): Non-resistant

B7: F372E (protein, listed as Avena sativa)
chain: MPPTPATATGAAAAAVTPEHAARSFPRVVRVNPRSDRFPVLSFHHVELWCADAASAAGRFSFALGAPLAARSDLSTGNSAHASLLLRSGALAFLFTAPYAPPPQEAATAAATASIPSFSADAARTFAAAHGLAVRSVGVRVADAAEAFRVSVAGGARPAFAPADLGHGFGLAEVELYGDVVLRFVSYPDETDLPFLPGFERVSSPGAVDYGLTRFDHVVGNVPEMAPVIDYMKGFLGFHEFAEFTAEDVGTTESGLNSVVLANNSEAVLLPLNEPVHGTKRRSQIQTYLEYHGGPGVQHIALASNDVLRTLREMRARTPMGGFEFMAPPQAKYYEGVRRIAGDVLSEEQIKECQELGVLVDRDDQGVLLQIETKPVGDRPTFFLEMIQRIGCMEKDEVGQEYQKGGCGGFGKGNFSELFKSIEDYEKSLEVKQSVVAQKS
modifications: AsHPPD Amido Acid Sequence
- Resistance Grade (topramezone 25 g ai/ha (1x)): Poorly resistant
- score (topramezone 25 g ai/ha (1x)): 60
- Grade 0 (topramezone 25 g ai/ha (1x)): 0
- Grade 1 (topramezone 25 g ai/ha (1x)): 8
- Grade 2 (topramezone 25 g ai/ha (1x)): 8
- Grade 3 (topramezone 25 g ai/ha (1x)): 4
- Resistance Grade (topramezone 50 g ai/ha (2x)): Poorly resistant
- score (topramezone 50 g ai/ha (2x)): 63
- Grade 0 (topramezone 50 g ai/ha (2x)): 0
- Grade 1 (topramezone 50 g ai/ha (2x)): 6
- Grade 2 (topramezone 50 g ai/ha (2x)): 10
- Grade 3 (topramezone 50 g ai/ha (2x)): 4
- Resistance Grade (topramezone 100 g ai/ha (4x)): Non-resistant
- score (topramezone 100 g ai/ha (4x)): 97
- Grade 0 (topramezone 100 g ai/ha (4x)): 0
- Grade 1 (topramezone 100 g ai/ha (4x)): 0
- Grade 2 (topramezone 100 g ai/ha (4x)): 2
- Grade 3 (topramezone 100 g ai/ha (4x)): 18

B8: F372K. (protein, listed as Avena sativa)
chain: MPPTPATATGAAAAAVTPEHAARSFPRVVRVNPRSDRFPVLSFHHVELWCADAASAAGRFSFALGAPLAARSDLSTGNSAHASLLLRSGALAFLFTAPYAPPPQEAATAAATASIPSFSADAARTFAAAHGLAVRSVGVRVADAAEAFRVSVAGGARPAFAPADLGHGFGLAEVELYGDVVLRFVSYPDETDLPFLPGFERVSSPGAVDYGLTRFDHVVGNVPEMAPVIDYMKGFLGFHEFAEFTAEDVGTTESGLNSVVLANNSEAVLLPLNEPVHGTKRRSQIQTYLEYHGGPGVQHIALASNDVLRTLREMRARTPMGGFEFMAPPQAKYYEGVRRIAGDVLSEEQIKECQELGVLVDRDDQGVLLQIKTKPVGDRPTFFLEMIQRIGCMEKDEVGQEYQKGGCGGFGKGNFSELFKSIEDYEKSLEVKQSVVAQKS
modifications: AsHPPD Amido Acid Sequence
- Resistance Grade (topramezone 25 g ai/ha (1x)): Moderately resistant
- score (topramezone 25 g ai/ha (1x)): 33
- Grade 0 (topramezone 25 g ai/ha (1x)): 0
- Grade 1 (topramezone 25 g ai/ha (1x)): 20
- Grade 2 (topramezone 25 g ai/ha (1x)): 0
- Grade 3 (topramezone 25 g ai/ha (1x)): 0
- Resistance Grade (topramezone 50 g ai/ha (2x)): Poorly resistant
- score (topramezone 50 g ai/ha (2x)): 47
- Grade 0 (topramezone 50 g ai/ha (2x)): 2
- Grade 1 (topramezone 50 g ai/ha (2x)): 8
- Grade 2 (topramezone 50 g ai/ha (2x)): 10
- Grade 3 (topramezone 50 g ai/ha (2x)): 0
- Resistance Grade (topramezone 100 g ai/ha (4x)): Non-resistant
- score (topramezone 100 g ai/ha (4x)): 90
- Grade 0 (topramezone 100 g ai/ha (4x)): 0
- Grade 1 (topramezone 100 g ai/ha (4x)): 0
- Grade 2 (topramezone 100 g ai/ha (4x)): 6
- Grade 3 (topramezone 100 g ai/ha (4x)): 14
